From patent US20220112288A1 (published 2022) come the findings set out here.

B1: 75110_05E13A (antibody, V domains shown)
VH: EVQLVESGGDLVKPGGSLRLSCAASGFSFSNAWMSWVRQAPGKGLEWVGRVESKTDGGTTDYAAPVKDRFTISRDDSKYTLYLQMNSLKTEDSAVYYCTIGGGFGLELYGFFDYWGQGTLVTVSS
VL: DIQMTQSPSTLSASVGDRVTITCRASQSISSWLAWYQQKPGKAPMLLIYKASSLESGVPSRFSGSGSGTEFTLTISSLQPDDFATYYCLQYNSYYTFGQGTKLEIK
notes: Tested as clonal hybridoma supernatant of an AlivaMab Mouse Kappa antibody (human variable regions, kappa; detected with anti-mouse Fc)
B2: 75110_05B13A (antibody, V domains shown)
VH: QVLLEQWGAGLLKPSETLSLTCAVYGGSFSGYYWTWIRQPPGKGLEWIGEINHRGSTNYNPSLKSRVTISIDTSKNQFSLKVKSVTAADTAMYYCTRPDSNWFDPWGQGTLVTVSS
VL: DIQMTQSPSSVSASVGDRVTITCRASQDISNWLAWYQQKPGKAPKLLIFAASSLQSGVPSRFSGSGSGTDFTLTISSLQPEDFATYYCQQANSFPLTFGGGTKVEIK
notes: as for B1
B3: 75110_06D16A (antibody, V domains shown)
VH: QVQLQQWGAGLLKPSETLSLTCAVYGGSFSGYYWSWIRQPPGKGLEWIGEINHSGSTNYNPSLKSRVTISVVTSKNQFSLKLSSVTAADTAVYYCARVLNWFDPWGQGTLVTVSS
VL: DIQMTQSPSSVSASVGDRVTITCRASQDIADWLAWYQQKPGKAPKLLIYAASSFQSGVPSRFSGSGSGTDFTLTISSLQPEDFATYFCQQANSFPYTFGQGTKLEIK
notes: as for B1
B4: 75110_05A11A (antibody, V domains shown)
VH: EVQLVESGGGLVKPGGSLTLSCAASGFTFSNTWMSWVRQAPGKGLEWVGRIKSKIDGGTTDYAAPVKGRFTISRDDSKNTLYLQMNSLKTEDTAVYYCTTSGTYSSGWGLFDYWGQGTLVTVSS
VL: DIQMTQSPSSLSASVGDRVTITCQASQDISNYLNWYQQKPGKAPKLLIYDTSNLEAGVPSRFSGSGSGTHFTLTISSLQPEDIATYYCQQYDNLPFTFGGGTRVEIK
notes: as for B1
B5: 75110_06C16A (antibody, V domains shown)
VH: QVQLQESGPGLVTPSETLSLSCTVSGGSISDYYWSWIRQPGGKGLEWIGRIYSSGSTNYNPSLKSRVTMSVDTSKNQFSLKLSSVTAADTAVYFCARDREDYYYYGMDVWGQGTTVTVSS
VL: DIQMTQSPSSLSASVGDRVTITCQASHDISNYLNWYQQKPGKAPKLLIYAASNLETGVPSRFSGSGSGTDFSFTISSLQPEDIATYYCQQYDHLPLTFGGGTKVEIK
notes: as for B1
B6: 75110_05E05A (antibody, V domains shown)
VH: QVQLQESGPGLVKPSETLSLTCTVSGGSIGSYYWSWIRQPAGKGLEWIGRIYTSGSTNYNPSLKSRVTMSFDTSKNQFSLKLNSVTAADTAVYYCATDGGVGDSLDYWGQGTLVTVSS
VL: DIVMTQTPLSLPVTPGEPASISCRSSQSLLDSDDGNTYLDWYLQKPGQSPQLLIYTLSYRASGVPDRFSGSGSGTDFTLKISRVEAEDVGVYYCMQHIEFPFTFGPGTKVDIK
notes: as for B1
B7: 75110_05G15A (antibody, V domains shown)
VH: QVQLQESGPGLVKPSQTLSLTCTVSGGSISSGGYFWSWIRQHPGKGLEWIGCIYYSGSTYYIPSLKSRVTISVDTSKNQFSLKLRSVTAADTAVYYCARDGYDYWYFDLWGRGTLVTVSS
VL: not shown
B8: 75110_05L07A (antibody, V domains shown)
VH: EVQLVESGGGLVQPGGSLRLSCAASGFTFSSYWMSWVRQAPGKGLEWVANINQDGSDKYYVDSVKGRFTISRDNVKNSLYLQINSLRAEDTAVYYCAREGGQWLTLDYWGQGTLVTVSS
VL: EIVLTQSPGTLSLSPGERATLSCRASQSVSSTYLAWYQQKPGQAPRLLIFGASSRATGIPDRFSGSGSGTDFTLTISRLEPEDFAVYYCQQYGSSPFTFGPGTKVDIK
notes: as for B1
B9: 75110_07B16A (antibody, V domains shown)
VH: QVQLQQWGAGLLKPSETLSLTCAVYGGSFSGYYWSWIRQSPGKGLEWIGEINQSGSTNYNPSLKSRVTISVDTSKDQFSLKLSSVTAADTAVYYCARVINWFDSWGQGSLVTVSS
VL: DIQMTQSPSSVSASVGDRVTITCRASQGISSWLAWYQQKPGKAPKLLIYDASSFQSGVPSRFSGSGSGTDFTLTISSLQTDDFATYYCQQANSFPYTFGQGTKLEIK
B10: 75110_09N20A (antibody, V domains shown)
VH: EVQLVESGGGLVQPGGSLRLSCAASGFTFSSYWMSWVRQAPGKGLEWVANINEDGSEKYYVDSVKGRFTISRDNAKNSLYLQMNSLRAEDTAVYYCVREGGQWLALDYWGQGTLVTVSS
VL: DIQMTQSPSSVSASVGDRVTITCRASQGISSWLAWYQQKPGKAPKLLIYAASSLQSGVPSSFSGSGSGTDFTLTINSLQPEDFATYYCQQANSFPWTFGQGTKVAIK
B11: 75110_08H11A (antibody, V domains shown)
VH: EVQLVESGGGLVQPGGSLRLSCAASGFTFSSYDMHWVRQATGKGLEWVSTIGTAGDTYYPGSVKGRFTISRENAKNSLYLQMNSLRAGDTAVYYCARGGYSYYGMDVWGQGTTVTVSS
VL: EIVLTQSPGTLSLSPGERATLSCGASQSVSSTYLAWYQQKPGQAPRLLIYGASSRATGIPDRFSGSGSGTDFTLTISRLEPEDFAVYYCQQFGSSPFTFGPGTKVDIK
B12: 75110_10L22A (antibody, V domains shown)
VH: EVQLVESGGGLVQPGGSLRLSCAASGFTFSSYDMHWVRQATGKGLEWVSTIGTAGDTYYPGSVKGRFTISRENAKNSLYLQMNGLRAGDTAVYYCARGNYFYYGVDVWGQGTTVTVSS
VL: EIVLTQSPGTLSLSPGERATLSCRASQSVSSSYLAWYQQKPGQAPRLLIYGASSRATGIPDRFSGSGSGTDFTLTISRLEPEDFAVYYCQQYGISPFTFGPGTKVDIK
B13: 75110_08K12A (antibody, V domains shown)
VH: EVQLVESGGGLVQPGGSLRLSCAASGFTFSSYDMHWVRQATGKGLEWVSTIGTAGDTYYPGSVKGRFTISRENAENSLYLQMNSLRAGDTALYYCARGDYYYYGMDVWGQGTTVTVSS
VL: EIVLTQSPGTLSLSPGERATLSCRASQSVSSTYLAWYQQKPGQAPRLLIYGASNRATGIPDRFSGSGSGTDFTLTISRLEPEDFAVYYCQQFGTSPFTFGPGTKVDIK
B14: 75110_08H06A (antibody, V domains shown)
VH: EVQLVESGGGLVQPGGSLRLSCAASGFTFSNYDMHWVRQATGKGLEWVSTIGTAGDTYYPGSVKGRFTISRENAKNSLYLQMNSLRAGDTAVYYCARGGYDYYGMDVWGQGTTVTVSS
VL: EIVLTQSPGTLSLSPGERATLSCRASQSITSIYLAWYRQKPGQAPRLLIYGASSRATGIPDRFSGSGSGTDFTLTISRLEPEDFAVYYCQQYGSSPFTFGPGTKVDIK
B15: 75110_10N21A (antibody, V domains shown)
VH: EVQLVESGGGLVQPGGSLRLSCAASGFTFSSYDMHWVRQVTGKGLEWVSTIGTAGDTYYPGSVKGRFTISRENAKNSLYLQMNSLRAGDTAVYYCARGGYYYYGMDVWGQGTTVTVSS
VL: EIVLTQSPGTLSLSPGERATLSCRASQSFISSYLAWYQQKPGQAPRLLIYGASSRATGIPDRFSGSGSGTDFTLTISRLDPEDFAVYYCQQSGNSPFTFGPGTKVDVK
B16: 75110_07E04A (antibody, V domains shown)
VH: EVQLVESGGGLVQPGGSLRLSCAVSGFTFSSYDMHWVRQATGKGLEWVSTIGTAGDTYYPGSVKGRFTISRENAKKFLYLQMNSLRAGDTAVYYCARGGYYYYGMDVWGQGTTVTVSS
VL: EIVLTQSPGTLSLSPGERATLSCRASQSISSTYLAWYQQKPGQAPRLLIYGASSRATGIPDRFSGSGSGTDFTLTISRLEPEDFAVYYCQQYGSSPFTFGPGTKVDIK
B17: 75110_06K03A (antibody, V domains shown)
VH: QVQLQESGPGLVKPSETLSLTCTVSGGSISTYYWSWIRQPAGKGLEWIGRINTSGSTTYNPSLKSRVTMSVDTSKNQFSLKLSSVTAADTAVYYCARELERYYYYGMDVWGQGTTVTVSS
VL: DIQMTQSPSSLSASVGDRVTITCQASQDISNYLNWYQQKPGKAPKLLIYYASILETGVPSRFSGSGSGTDFTFTISSLQPEDIATYYCQQYDSLPLTFGGGTKVEIK
B18: 75110_08D24A (antibody, V domains shown)
VH: QVQLQESGPGLVKPSETLSLTCTVSGGSISGFYWSWIRQPAGKGLEWIGRIYTSENTNYNPSLKSRVTMSVDTSKNQFSLKLSSVTAADTAVYYCARDREGYYYYGMDVWGQGTTVTVSS
VL: DIQMTQSPSSLSASVGDRVTITCQASQDISNYLNWYQQKPGKAPKLLIYAASNLETGVPSRFSGSGSGTDFTFTISSLQPEDIATYYCQQYDSLPITFGQGTRLEIK
B19: 75110_06G04A (antibody, V domains shown)
VH: QVQLLESGPGLVKPSETLSLTCTVSGGSISSYYWSWIRQPAGKGLEWIGRIYISGSTNYNPSLKSRVTMSIDTSENQFSLNLSSVTAADTAVYYCARELERPYYYGMDVWGQGTTVTVSS
VL: DIQMTQSPSSLSASVGDRVTITCQASQDISNYLNWYQQKPGKAPKLLIYNASTLETGVPSRFSGSGSGTDFTFTISSLQPEDIATYYCQQYDNLPLTFGGGTKVEFK
B20: 75110_06E14A (antibody, V domains shown)
VH: QVQLQESGPGLVKPSETLSLTCTVSGGSISNYFWSWIRQPAGKGLEWIGRIYSSGNTNYNPSLKSRVTMSVDTSKNQFSLKLSSVTAADTAVYYCARDREDYYYYGMDVWGQGTTVTVSS
VL: DIQMTQSPSSLSASVGDRVTITCQASQDISNYLNWYQQKPGKAPKLLIYGASILETGVPSRFTGSGSGTDFTFTISSLQPEDIATYYCQQYDSLPITFGQGTRLEIK
B21: 75110_08M20A (antibody, V domains shown)
VH: QVQLQESDPGLVKPSETLSLTCTVSGGSISSYYWSWIRQPAGKGLEWIGRIYASGSTNYNPSLKSRVTMSVDTSKNQFSLKLSSVTAADTAVYYCARDREGYYYYGMDVWGQGTTVTVSS
VL: DIQMTQSPSSLSASVGDRVTITCQASQDISKYLNWYQQKPGKAPNLLIYAASNLETGVPSRFSGSGSGTDFTFTISSLQPEDIAAYYCQQYDSLPITFGQGTRLEIK

The first assay has as its target T1, human CD4 on human PBMCs (human, UniProt P01730 26-458).
T1 construct: whole, on cells; the CD4-positive gate was set with the control antibodies OKT4 and RPA-T4; also called hCD4
Briefly: FACS, clonal hybridoma supernatant on PBMCs. (In general: In flow cytometry, cells or beads pass a laser one at a time.)
With B1, the “% CD4 Stain” value came out at 38.9% and the “gMFI of CD4+” value was found to be 257000 gMFI.

For B2, the “% CD4 Stain” value came to 55.8% and the “gMFI of CD4+” value turned out to be 135000 gMFI.

In the case of B3, the “% CD4 Stain” value is 39.2% and the “gMFI of CD4+” value turned out to be 253000 gMFI.

As to B4, the “% CD4 Stain” value came to 35.9% and the “gMFI of CD4+” value was 246000 gMFI.

B5: the “% CD4 Stain” value is 33.1% and the “gMFI of CD4+” value came to 270000 gMFI.

B6: the “% CD4 Stain” value is 31.8% and the “gMFI of CD4+” value worked out at 64000 gMFI.

B7: the “% CD4 Stain” value worked out at 31.6% and the “gMFI of CD4+” value was determined as 326000 gMFI.

With B8, the “% CD4 Stain” value turned out to be 37.9% and the “gMFI of CD4+” value worked out at 156000 gMFI.

For another assay, the target named is T2, human CD4 on human PBMCs (human, UniProt P01730 26-458).
T2 construct: whole, on cells; also called hCD4
Briefly: FACS, clonal hybridoma supernatant on PBMCs.
For the molecule B9, the “% CD4 Stain” value came out at 37.3% and the “gMFI of CD4+” value came out at 189000 gMFI.

Consider B10, for which the “% CD4 Stain” value turned out to be 37.5% and the “gMFI of CD4+” value was found to be 227000 gMFI.

Take B11: the “% CD4 Stain” value came out at 27.1% and the “gMFI of CD4+” value stood at 87000 gMFI.

Consider B12, for which the “% CD4 Stain” value is 34.3% and the “gMFI of CD4+” value was found to be 77400 gMFI.

Consider B13, for which the “% CD4 Stain” value is 34.6% and the “gMFI of CD4+” value was 175000 gMFI.

For B14, the “% CD4 Stain” value was found to be 28.1% and the “gMFI of CD4+” value was 88800 gMFI.

Take B15: the “% CD4 Stain” value amounted to 38.3% and the “gMFI of CD4+” value was found to be 203000 gMFI.

In the case of B16, the “% CD4 Stain” value is 36.1% and the “gMFI of CD4+” value is 141000 gMFI.

With B17, the “% CD4 Stain” value came out at 34% and the “gMFI of CD4+” value amounted to 320000 gMFI.

B18: the “% CD4 Stain” value came to 33.6% and the “gMFI of CD4+” value worked out at 332000 gMFI.

For the molecule B19, the “% CD4 Stain” value came to 34.8% and the “gMFI of CD4+” value came out at 307000 gMFI.

Regarding B20, the “% CD4 Stain” value was found to be 31.7% and the “gMFI of CD4+” value came out at 225000 gMFI.

Consider B21, for which the “% CD4 Stain” value is 34.1% and the “gMFI of CD4+” value was 343000 gMFI.
